Measurements: patent publication US20040175721A1 (UNIVERSITY OF MASSACHUSETTS A MASSACHUSETTS, published 2004)

B1: human centriolin Nud1 domain (amino acids 127-233 of centriolin) fused to the GAL4 transactivation domain (other, not shown: small tags and cut ends)
chain (part 1 of 2): ANFNQSGNIADSSLSFTFTNSSNGPNLITTQTNSQALSQPIASSNVHDNFMNNEITASKIDDGNNSKPLSPGWTDQTAYNAFGITTGMFNTTTMDDVYNYLFDDEDTPPNPKKE
chain (part 2 of 2): LEVLNLSYNLIGKIEKLDKLLKLRELNLSYNKISKIEGIENMCNLQKLNLAGNEIEHIPVWLGKKLKSLRVLNLKGNKISSLQDISKLKPLQDLISLILVENPVVTL
notes: also called TAD-hNud1; hNud1

Assays:
[1] = target: T1, LexA-tagged budding yeast Bfa1p (pGP122, LexA-BFA1) (budding yeast, UniProt P47113 1-574, limits assumed); assay: directed yeast two-hybrid
T1 construct: Construct pGP122 obtained from Elmar Schiebel; also called LexA-Bfa1p; not shown: LexA part of the vector
T1 sequence (looked up): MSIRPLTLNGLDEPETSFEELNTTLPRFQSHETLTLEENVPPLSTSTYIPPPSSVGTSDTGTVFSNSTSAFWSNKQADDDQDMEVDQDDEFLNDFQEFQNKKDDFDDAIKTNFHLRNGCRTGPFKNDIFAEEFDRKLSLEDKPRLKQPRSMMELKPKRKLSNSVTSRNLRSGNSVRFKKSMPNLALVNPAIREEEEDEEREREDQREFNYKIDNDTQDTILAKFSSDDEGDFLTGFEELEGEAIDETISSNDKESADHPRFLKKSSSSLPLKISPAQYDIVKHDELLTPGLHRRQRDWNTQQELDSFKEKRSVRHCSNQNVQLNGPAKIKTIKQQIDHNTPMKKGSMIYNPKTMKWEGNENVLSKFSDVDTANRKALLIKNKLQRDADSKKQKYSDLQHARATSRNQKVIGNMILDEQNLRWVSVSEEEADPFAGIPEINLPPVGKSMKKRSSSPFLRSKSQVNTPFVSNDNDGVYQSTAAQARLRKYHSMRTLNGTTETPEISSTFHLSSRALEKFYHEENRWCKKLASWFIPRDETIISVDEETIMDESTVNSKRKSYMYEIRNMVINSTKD
Text: (§1) A 321 base pair fragment containing amino acids 127-233 of centriolin were cloned into EcoR I and Sal I sites of pGADT7 (Clontech) to produce a fusion with the GAL4 transactivation domain (TAD). Constructs pEG202 (LexA), pGP69 (LexA-BUB2), pGP122 (LexA-BFA1) and the yeast strain SGY37 were from Elmar Schiebel (Paterson Institute for Cancer Research, Manchester, U.K.). SGY37, which contains a LacZ reporter gene under control of a LexA operator, was transformed with plasmid DNA using LiAc (Ito et al., J Bacteriol, 153:163-168, 1983) and transformants selected for on dropout medium. Methods used were semi-quantitative β-galactosidase assays (Schramm et al., Methods Cell Biol., 67:71-94, 2001) and more quantitative β-galactosidase assays with CPRG (chlorophenol red-b-D-galactopyranoside, Roche) as a substrate per the manufacturer's instructions (Clontech Yeast Protocols Handbook). Co-immunopreciptation of LexA and GAL4 TAD fusion proteins were carried out as previously described (Schramm et al., Methods Cell Biol., 67:71-94, 2001).

[2] = target: T2, LexA-tagged budding yeast Bub2p (pGP69, LexA-BUB2) (budding yeast, UniProt P26448 1-306, limits assumed); assay: directed yeast two-hybrid, LexA-BUB2 x TAD control
T2 construct: Construct pGP69 obtained from Elmar Schiebel; also called LexA-Bub2p; not shown: LexA part of the pEG202-type vector
T2 sequence (looked up): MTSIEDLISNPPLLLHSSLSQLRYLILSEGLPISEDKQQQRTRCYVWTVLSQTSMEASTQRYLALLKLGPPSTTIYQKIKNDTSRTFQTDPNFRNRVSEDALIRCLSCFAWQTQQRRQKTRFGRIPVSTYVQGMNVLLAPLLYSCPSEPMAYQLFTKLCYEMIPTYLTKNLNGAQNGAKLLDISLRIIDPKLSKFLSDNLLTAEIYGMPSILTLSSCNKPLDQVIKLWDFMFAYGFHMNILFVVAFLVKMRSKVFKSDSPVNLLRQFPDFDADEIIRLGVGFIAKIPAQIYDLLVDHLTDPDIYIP
Text: as §1

[3] = target: B1; assay: directed yeast two-hybrid, TAD-hNud1 x LexA control
Text: as §1

## B1
[1]
  binding result: no binding

B2: GAL4 transactivation domain alone (other, UniProt P04386 768-881, looked up)
chain: ANFNQSGNIADSSLSFTFTNSSNGPNLITTQTNSQALSQPIASSNVHDNFMNNEITASKIDDGNNSKPLSPGWTDQTAYNAFGITTGMFNTTTMDDVYNYLFDDEDTPPNPKKE
notes: also called TAD
[2]
  binding result: no binding

B3: LexA alone (pEG202) (other, UniProt P0A7C2 1-202, looked up)
chain: MKALTARQQEVFDLIRDHISQTGMPPTRAEIAQRLGFRSPNAAEEHLKALARKGVIEIVSGASRGIRLLQEEEEGLPLVGRVAAGEPLLAQQHIEGHYQVDPSLFKPNADFLLRVSGMSMKDIGIMDGDLLAVHKTQDVRNGQVVVARIDDEVTVKRLKKQGNKVELLPENSEFKPIVVDLRQQSFTIEGLAVGVIRNGDWL
[3]
  binding result: no binding
